B1: P018.S.10.A.E04 (antibody, V domains shown)
VH: QSLEESGGDLVKPGASLTLTCTASGFSFSSSYWICWVRQAPGKGLEWVACISAPGSGSTFDASWAKGRFTISKTSSTTVTLQMTSLTAADTATYFCARFYAGGSGDYFDLWGPGTLVTVSS
VL: QIVMTQTPSSTSEPVGGTVSIKCQASQNIGSYLAWYQQKPGQPPKVLIYTTSDLASGVPSRFKGSGSGTQFTLTISDLESDDAATYYCLGVYGYSSDDVAFGGGTEVVVK
B2: P018.S.10.A.H02 (antibody, V domains shown)
VH: QSLEESGGRLVTPGGSLTLTCTVSGIDLSSYAMGWFRQAPGKGLEYIGIIYSSGSTWFANWVKGRFTISKTSTTVDLKMTSLTTEDTATYFCARYSAADHGDKFKLWGQGTLVTVSS
VL: AAVLTQTPSPVSAAVGGTVSISCQSSKNIFDNTRLSWFQQKPGQPPKQLIYGASTLASGVPSRFSGSGSGTQFTLTISGVQSDDAATYYCLGEYSSDSDTSFGGGTEVVVK
B3: P018.S.09.A.H06 (antibody, V domains shown)
VH: QSVEESGGRLVKPDETLTLTCTVSGIDLTSYAMGWVRQAPGEGLEWIGAIGSGGGIYYASWARGRFTISKTSSTTVDLKIPSPTTEDTATYFCARVPQWAYLDLWGQGTLVTVSS
VL: AQVLTQTPASVSAAVGGTVTISCQSSESVYKNNYLSWYQQKPGQPPKLLIYDASTLASGVPSRFSGSGSGTQFTLTISGVQSEDAATYYCQGYYGGGIFTFGGGTEVVVK
B4: P018.S.09.A.E02 (antibody, V domains shown)
VH: QSLEESGGRLVTPGTPLTLTCTASGFTISSHHMTWVRQAPGEGLEWLGVIFPSGHTYYTSWAKGRFTISRTSTTVDLKMASLTIEDTATYFCVRDVGYFTLWGQGTLVTVSS
VL: AQVLTQTPSPVSAAVGGTVTISCQSSESVGGNNWLAWYQQKLGQPPKLLIYGASTLASGVPSRFSGSGSGTQFTLTISEVQSDDAATYYCQGYYSDVTNAFGGGTEVVVE
notes: V regions on human Ig constant parts; also called AB27_153
B5: P018.S.03.A.G05 (antibody, V domains shown)
VH: QSLEESGGDLVKPEGSLTLTCTASGFSFSSGGWICWVRQAPGRGLEWIACIYVGSSGTTHYASWAKGRFTISKTSSTTVTLQMTSLTAADTATYFCARGAVYGGGSYDNFHLWGPGTLVTVSS
VL: AYDMTQTPASVSEPVGGTVTIKCQASQSIGSYLSWYQQKPGQRPKLLIYAASTLASGVQSRFKGSGSGTDYTLTISGVQSDDAATYYCQQGYNISNLDNTFGGGTEVVVK
notes: V regions on human Ig constant parts; also called AB27_58
B6: P018.S.06.A.A05 (antibody, V domains shown)
VH: QSLEESGGRLVTPGTPLTLTCTVSGIDLSSYAMGWVRQAPGKGLELIGLIYASNRTHYATWAKGRFTISKSSTTVDLKATSLTTEDTATYFCGRYGRGSGGYYYGMDLWGPGTLVTVSS
VL: DVVMTQTPASVEAAVGGTVTIKCQASQSGDNYLSWYQQKSGQPPKLLIYLASTLASGVPSRFRGSRSGTEYTLTISDLESADAATYYCQNYCAGSGVCVGVAFGGGTEVVVK
notes: V regions on human Ig constant parts; also called AB27_97
B7: P018.S.02.A.B01 (antibody, V domains shown)
VH: QSVEESGGRLVTPGTPLTLTCTVSGMDLSSYSMSWVRQAPGEGLEYIGFIGSSGGTYYASWAKGRFTISRTSTTVDLNITSPTTEDTATYFCARMLAGVYTRLDLWGQGTLVTVSS
VL: AQVLTQTPSSVSAAVGGTVTINCQASQSISSSYCSWYQQKPGQPPKLLIYKASTLASGVPSRFKGSGSGTQFTLTISDVQSDDAATYYCAGDFIASSGNAFGGGTEVVVK
notes: V regions on human Ig constant parts; also called AB27_29
B8: P018.S.10.A.H05 (antibody, V domains shown)
VH: QSLEESGGRLVTPGTPLTLTCTASGFSLSTYYMSWVRQAPGKGLEWIGIIYTSGSTYYASWAKGRFTISRNSTTVDLKITSPTTEDTATYFCARSRVPGDTTGLYYFNLWGPGTLVTVSS
VL: ALVMTQTPASVSAAVEGTVTINCQASENIYSNLAWYQQKPGQPPKLLIYHTSNLASGVPSRFKGSGAGTEFTLTISDLESDDAATYYCQSAYDSSSSDTFTFGGGTEVVVK
notes: V regions on human Ig constant parts; also called AB27_186
B9: P018.S.10.A.C01 (antibody, V domains shown)
VH: QSVEESGGRLVTPGTPLTLTCTLSGFSLSNYAMSWVRQAPGKGLEWIGVIYTSGTTHYASWAKGRFTISKTSTTVDLRMTSLTTEDTATYFCARSRYYGSGWGGYYFNLWGQGTLVTVSS
VL: DVVMTQTPSPVSAAVGGTVTINCQASEDIYSLLAWYQQKPGQRPKLLIYGASNLESGVPSRFKGSGSGTEYTLTISGVQSADAATYYCHGGTYTGSADINAFGGGTEVVVE
notes: V regions on human Ig constant parts; also called AB27_170
B10: P018.S.09.A.F06 (antibody, V domains shown)
VH: QSVEESGGRLVTPGGSLTLTCSVSGIDLSSYAMNWVRQAPGKGLEWIGIISTGGSTYYANWAKGRFTISKTSTTVDLKITSPTTEDTATYICARDVGGTTVPYYFDLWGPGTLVTVSS
VL: AYDMTQTPASMEVAVGGTVTIKCQASESISSWLAWYQQKPGQPPKPLIYEASRLASGVPSRFKGSGSGTEFTLTISGVESADAATYYCQQGYGSSDVHNIFGGGTEVVVK
notes: V regions on human Ig constant parts; also called AB27_158
B11: P018.S.09.A.C06 (antibody, V domains shown)
VH: QSVEESGGRLVTPGTPLTLTCTVSGFSLSTYAMGWVRQAPGKGLEWIGIIYTGGSTYYASWAEGRFTISKTSTTVDLKITSPTPEDTATYFCTRDLGATYDYFDLWGQGTLVTVSS
VL: AYDMTQTPASVEVAVGGTVTIKCQASQSISTALAWYQQKPGQRPKLLIYDTSDLASGVPSRFSGSGSGTEFTLTISGVESADAATYYCQQGYRHTNVDNPFGGGTGVVVK
B12: P018.S.10.A.A04 (antibody, V domains shown)
VH: QSVEESGGRLVTPGTPLTLTCTVSGIDLSSNVMTWVRQAPGKGLEWIGYIYASATTYYATWAKGRFTISKTSTTVDLKMTSPTTEDTATYFCARERLASRGDYSDLWGQGTLVTVSS
VL: AYDMTQTPASVEAAVGGTVTIKCQASESIGDLLAWYQQKPGQPPKLLIYDASDLASGVPSRFKGSGSGTEFTLTISGVESADAATYYCQQGYTTTSNVDNIFGGGTEVVVK
B13: P018.S.09.A.C02 (antibody, V domains shown)
VH: QSVEESGGRLVTPGTPLTLTCTVSGIDLSSYVMSWVRQAPGKGLEWIGYIDYGGTAYYASWAKGRFTISKTSTTVELKITSPTIEDTATYFCARGGYGGYTLVTALWGPGTLVTVSS
VL: DIVMTQTPASVSEPVGGTVTIKCQASQSISSYLSWYQQKPGQPPKLLIYSTSTLASGVSSRFKGSGSGTEYTLTISDLESADAATYYCQTYYGGGPFGNGFGGGTEVVVK
notes: V regions on human Ig constant parts; also called AB27_147
B14: P018.S.06.A.B01 (antibody, V domains shown)
VH: QSLEESGGGLVKPEGSLTLTCTASGFSFSSSYWICWVRQAPGKGLEWIGCIYAGTFSDTFYASWTKGRFTISKTSSTTVTLQMTSLTGADTATYFCARGHYYYTDNYTANGYGRGLTRLDLWGQGTLVTVSS
VL: AAVLTQTPSPVSAAVGGTVTISCQASQSVYNNNNLAWYQQKAGQPPKLLIYGASNLESGVPSRFKGSGSGTQFTLTISDLESDDAASYYCAGGYTTSGDNGFGGGTEVVVK
notes: V regions on human Ig constant parts; also called AB27_98
B15: P018.S.06.A.H05 (antibody, V domains shown)
VH: QSLEESGGDLVQPEGSLTLTCKASGFDFSSTYWICWVRQAPGKGLEWIGCIDDSYAYTYYASWAKGRFTISKPSSTTVTLQVTSLTVADTATYFCARDGYPGYGVGSFNLWGPGTLVTVSS
VL: AIVMTQTPSSKSVPVGDTVTINCQASESVYSNNRLAWFQQKPGQPPKLLIYLASTLASGVPSRFKGSGSGTQFTLTISDVVSDDAATYYCAGYKSYSDDGTGFGGGTEVVVK
notes: V regions on human Ig constant parts; also called AB27_112
B16: P018.S.05.A.D06 (antibody, V domains shown)
VH: QSVEESGGRLVTPGTPLTLTCTVSGFSLSSYWMSWVRQAPGKGLEWIGFIYGGSGDKYYASWAKGRFAISKTSTTVDLKITSPTTEDTATYFCARGGDGDGTYSSLWGQGTLVTVSS
VL: AQVLTQTPSPVSAAVGGTVTISCQSSESVAGKNLAWYQQKPGQPPKVLIYGTSNLASRVPSRFRGSGSGTQFTLTISDLESDDAATYYCQGYYSGGIYGFGGGTEVVVE
notes: V regions on human Ig constant parts; also called AB27_88

Assays:
[1] = molecular target: T1, CD27 expressed on the cell surface of HT1080_CD27 cells (human, UniProt P26842 20-260); assay: cell-based or functional assay
T1 sequence (looked up): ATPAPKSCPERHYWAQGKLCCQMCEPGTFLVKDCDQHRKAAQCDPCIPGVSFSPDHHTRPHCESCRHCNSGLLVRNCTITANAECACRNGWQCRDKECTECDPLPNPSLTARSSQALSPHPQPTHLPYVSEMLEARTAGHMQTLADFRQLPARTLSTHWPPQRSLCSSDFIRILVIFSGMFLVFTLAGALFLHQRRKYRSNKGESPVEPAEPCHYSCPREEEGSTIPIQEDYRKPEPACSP

[2] = molecular target: T2, CD27 protein (His-tagged, Sino Biological Inc. 10039-H08B1) (human, UniProt P26842 20-192); assay: ELISA, coated His-tagged CD27; note: test concentration or dose not given here
T2 construct: bought protein coated on ELISA plates; also called TNFRSF7; not shown: His tag
T2 sequence (looked up): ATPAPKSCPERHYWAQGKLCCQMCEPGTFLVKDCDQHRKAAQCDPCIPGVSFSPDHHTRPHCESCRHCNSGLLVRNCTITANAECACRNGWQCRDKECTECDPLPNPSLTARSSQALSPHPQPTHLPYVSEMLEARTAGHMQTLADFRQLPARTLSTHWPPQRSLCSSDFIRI

[3] = molecular target: T1, CD27 expressed on the cell surface of …; assay: cell-based or functional assay; remark: listed apart in the source
[4] = molecular target: T1, CD27 expressed on the cell surface of …; assay: HT1080_CD27 cells, imaging; note: test concentration or dose not given here
Throughout, for Functional assay Cross-linked by F(ab′)2 fragment IL-8: test concentration or dose not given here.
Throughout, for Functional assay IL-8: test concentration or dose not given here.

| Binder | EC 50 (IL-8 release, cross-linked) [1] [µg/mL] | ELISA [abs. corr.] [2] [abs. corr.] | Functional assay Cross-linked by F(ab′)2 fragment IL-8 [3] [abs. corr.] | Functional assay IL-8 [3] [abs. corr.] | Cellular binding assay [RFU] [4] [RFU] |
| --- | --- | --- | --- | --- | --- |
| B1 | 0.234 |  |  |  |  |
| B2 | 0.122 |  |  |  |  |
| B3 | 0.329 |  |  |  |  |
| B4 |  | 2.98 | 1.61 | 0.172 | 305 |
| B5 |  | 2.98 | 1.27 | 0.031 | 269 |
| B6 |  | 2.95 | 1.09 | 0.433 | 140 |
| B7 |  | 2.93 | 1.42 | 0.538 | 332 |
| B8 |  | 2.96 | 1.11 | -0.155 | 313 |
| B9 |  | 2.93 | 1.1 | -0.046 | 266 |
| B10 |  | 2.98 | 2.03 | 0.58 | 218 |
| B11 | 0.221 |  |  |  |  |
| B12 | 0.335 |  |  |  |  |
| B13 |  | 2.94 | 1.07 | 0.07 | 323 |
| B14 |  | 2.94 | 1.18 | 0.106 | 279 |
| B15 |  | 2.98 | 1.56 | 0.278 | 308 |
| B16 |  | 2.93 | 1.23 | 0.338 | 323 |

From patent US20210253725A1 (BIONTECH, published 2021)
